These results are taken from patent publication US20230374526A1, “FORSKOLIN-INDUCIBLE PROMOTERS AND HYPOXIA-INDUCIBLE PROMOTERS” (ASKLEPIOS BIOPHARMACEUTICAL, INC., priority 2020, published 2023).

The subject of one data set is CHO-GS-KSV1 cell line. As to the kind of experiment: SEAP expression from forskolin-inducible promoters in stably transfected cell line, forskolin or NKH477 induction. In kind it is cell-based, chinese hamster. The following applies: for Promoter strength ranking: SEAP, stably transfected CHO-GS-KSV1. The protocol:
The forskolin-inducible promoters were then tested in a stably transfected CHO-GS-KSV1 cell line.
Cell suspensions of 6×10^5 cells per mL were incubated on an orbital shaker set at 8% CO2, 20% O2, 37° C., 85% relative humidity and 140 rpm overnight. 2.86×10^7 cells were centrifuged at 200 g for 3 minutes. Media was then aspirated and cell pellet resuspended in 2 mL fresh CD-CHO media to obtain a concentration of 1.43×10^7 cells per mL. 700 μL of cell suspension was added to each of two electroporation cuvettes each containing […] of linearised DNA in 100 μL of sterile TE buffer (Thermofisher, 12090015). Each cuvette was electroporated, delivering a single pulse of 300V, 900 μF with resistance to infinity. Immediately after delivery of pulse electroplated cells were transferred to Erlenmeyer 125 mL flask containing 20 mL of CD-CHO media pre-warmed to 37° C. Electroporated cells from two cuvettes are combined into a single 125 mL flask to generate one pool of cells. Cells are cultured on an orbital shaker set at 8% CO2, 20% O2, 37° C., 85% relative humidity and 140 rpm. Cells are transferred to fresh CD-CHO media 24 hours after transfection and cell cultures monitored and given fresh CD-CHO media every 2-4 days. Usually after about 10-14 days cell numbers will be high enough to start passaging. […]
The promoter activity and inducibility of FMP-02, FORCSV-10, FOR-CMC-009, and FLP-01 were also tested in the stably transfected CHO-GS-KSV1 cell line. […] After this point, the SEAP activity in the medium was assessed as described below.
SEAP Reporter Gene Assay, chemiluminescent (Roche, CAT #11 779 842 001) was used to measure SEAP activity as per the manufacturer's protocol. […] The signal is then read at 477 nm and compared to a calibration curve. […]

For data set [1] the following is noted: cited from earlier work.
The next data set relates to HEK-293 cells. Nature of the data set: Optimum inducer concentration to induce expression. In kind it is cell-based, human.
In another data set the test system is HEK293-F cells. As to the kind of experiment: Luciferase expression from forskolin-inducible promoters, transient transfection, forskolin induction. In kind it is cell-based, human. The following applies: transiently transfected HEK293-F, 20 μM forskolin. The protocol:
Luciferase readouts were normalised to β-galactosidase to produce normalised relative luminometer units (RLUs). β-galactosidase containing pcDNA6 plasmid was used as internal control for transfection efficiency (Thermofisher, V22020). β-galactosidase activity was measured as per manufacturer's instructions (Mammalian pGalactosidase Assay Kit, 75707/75710, Thermo Scientific) using 25 μl of lysate. 25 μl of lysate was transferred into a microplate well and mixed with 25 μl of β-galactosidase Assay Reagent, equilibrated to room temperature. The mixture was incubated at 37° C. for 30 min and absorbance measured at 405 nm.
The tested promoters were synthesised directly upstream of the ATG of PM-RQ plasmid and the suspension cell lines were transiently transfected with the PM-RQ plasmid.
40 ml of cells were grown in a 250 ml vented Erlenmeyer flask (Sigma-Aldrich CLS431144) at 37° C., 20% O2, 8% CO2 with agitation at 100 rpm. Cells were seeded as described in the manufacturer's instructions (300,000 cells/ml). HEK293-F were obtained from Thermofisher, R79007.
One day before transfection, the cells were counted using a haemocytometer and split to 500,000 cells/ml. […]
24 hours after transfection, the promoters were induced by addition of 20 μM forskolin and luciferase activity was measured 0, 3, 5 and 24 hours after induction. Luciferase activity was measured as described below. […]

With `C=C[C@@]1(C)CC(=O)[C@]2(O)[C@@]3(C)[C@@H](O)CCC(C)(C)[C@@H]3[C@H](OC(=O)CCN(C)C)[C@H](OC(C)=O)[C@@]2(C)O1.Cl` [NKH 477], in the data set on CHO-GS-KSV1 cell line (7.2 μM NKH477 vs 20 μM forskolin), the “Potency as inducer of the promoters compared with forskolin” value was “slightly more potent inducer”. Besides, the Water solubility result in data set [1] is given as “water-soluble”. Moreover, the “Concentration determined to be optimum to induce expression” value with HEK-293 cells is reported as “about 8 μM”.

B1: FMP-02: synthetic forskolin-inducible promoter, SEQ ID NO: 41; 8×AP1(1) TFBS with MinTK minimal promoter (nucleic acid)
DNA: TGAGTCAGATGATGCGTAGCTAGTAGTTGAGTCAGATGATGCGTAGCTAGTAGTTGAGTCAGATGATGCGTAGCTAGTAGTTGAGTCAGATGATGCGTAGCTAGTAGTTGAGTCAGATGATGCGTAGCTAGTAGTTGAGTCAGATGATGCGTAGCTAGTAGTTGAGTCAGATGATGCGTAGCTAGTAGTTGAGTCAGTAGTCGTATGCTGATGCGCAGTTAGCGTAGCTGAGGTACCGTCGACGATATCGGATCCTTCGCATATTAAGGTGACGCGTGTGGCCTCGAACACCGAGCGACCCTGCAGCGACCCGCTTAA
modifications: Synp-FMP-02
notes: 8×AP1(1) TFBS with MinTK minimal promoter
As for B1, in the data set on CHO-GS-KSV1 cell line, the Promoter strength ranking entry is on record as “weakest”. For the same molecule, the “Promoter strength ranking (fold induction)” value with HEK293-F cells is reported as “weakest”.

B2: FLP-01: synthetic forskolin-inducible promoter, SEQ ID NO: 42; 8×AP1(1) TFBS with G6PC minimal promoter (nucleic acid)
DNA: TGAGTCAGATGATGCGTAGCTAGTAGTTGAGTCAGATGATGCGTAGCTAGTAGTTGAGTCAGATGATGCGTAGCTAGTAGTTGAGTCAGATGATGCGTAGCTAGTAGTTGAGTCAGATGATGCGTAGCTAGTAGTTGAGTCAGATGATGCGTAGCTAGTAGTTGAGTCAGATGATGCGTAGCTAGTAGTTGAGTCAGTAGTCGTATGCTGATGCGCAGTTAGCGTAGCTGAGGTACCGTCGACGATATCGGATCCGGGCATATAAAACAGGGGCAAGGCACAGACTCATAGCAGAGCAATCACCACCAAGCCTGGAATAACTGCAGCCACC
modifications: Synp-FLP-01
notes: 8×AP1(1) TFBS with G6PC minimal promoter
For B2, the Promoter strength ranking result with CHO-GS-KSV1 cell line is listed as “strongest”. Besides, the “Promoter strength ranking (fold induction)” value in the data set on HEK293-F cells is “strongest”.
